Results taken from the supplement of paper PMC9170038.

Test system: MS2 coat protein
Assay: apparent KD of MS2 coat protein; designed switch direction (-1 OFF switch, 1 ON switch): 1; higher = weaker reporter binding
Method in brief: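 Each step of the titration lasted 0.8–1.5 h at the lowest concentration and 10–20 min at the highest. The protein, SNAP-549-labelled MS2 coat protein, went from 0.7 or 1.5 nM doubling to 3 µM over RNA switches transcribed on Illumina chips by stalled E. coli RNA polymerase. Normalised cluster fluorescence was curve-fitted, and the per-design median over clusters is given as apparent KD.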

[1] = input ligand: microRNA oligo, concentration not stated
[2] = Eterna round: R95, input ligand: FMN 200 uM
[3] = Eterna round: R95, input ligand: microRNA oligo, concentration not stated
[4] = Eterna round: R95, input ligand: none

| Sequence | apparent KD of MS2 coat protein (input ligand: FMN 200 uM) [µM] | apparent KD of MS2 coat protein [1] [µM] | apparent KD of MS2 coat protein (input ligand: none) [µM] | apparent KD of MS2 coat protein [2] [µM] | apparent KD of MS2 coat protein [3] [µM] | apparent KD of MS2 coat protein [4] [µM] |
| --- | --- | --- | --- | --- | --- | --- |
| GCCAACUAAUGAGGAUAUGGCACCUUAUUGGUGCCAGAAGGCAUGUCAAUUGACAUGAGGAUCACCCAUGUAUUAUAGUUGGCA [Fiskers NG1ss - 33] (Eterna round: R96, puzzle: Same State NG 1) | 0.0904 | 0.178 | 0.405 | – | – | – |
| GAGUGGAGGAAAGGAUAUACAAUGAUAAUCACAGUAGAAGGUUCUAACAUGAGGAUCACCCAUGUAGGACUAUACCAGAGAGGG [Parity 46 - Jieux - Same State NG 1] (Eterna round: R96, puzzle: Same State NG 1) | – | 0.0114 | – | – | – | – |
| AUAACACCGGCAGGAUAUGGGAAAGGAAGUGUACCAGAAGGGCCGGAACGGCGAUGGACAUGAGGAUCACCCAUGUCUUAGCCU [PowerStrip SSNG 1.24] (Eterna round: R96, puzzle: Same State NG 1) | 0.0137 | 0.0116 | 0.0173 | – | – | – |
| AGUCCAGCCUGAGCUGGACAAAGACAUGUACAUGAGGAUCACCCAUGUCAUGUACAAGUUUUUUGCUCGUCUUAUAA (puzzle: Sensor for hsa-mir-208a) | – | – | – | 0.0367 | 0.0125 | 0.0441 |
| UACAAUCUAUCUGAGGAUAUCAUGAAAAAAACAUGAGGAUCACCCAUGUGCAGGAAAACUGCAUAUGAGAAGGCAGAUAGAUUGU [salish99_SS2_r3_006] (puzzle: Same State 2) | – | – | – | 0.0324 | 0.971 | 1.65 |
| GGAAGGAGGUCAGGAUAUGAAUGGAAAGUACAUGAGGAUCACCCAUGUUAUGGAGGAAGGAAACGUUAGAAGGGAUAAGGAAGG [AK SSNG2-V2-2] (Eterna round: R96, puzzle: Same State NG 2) | 0.032 | 0.0268 | 0.0415 | – | – | – |
| AUUUAACAUGAGGAUCACCCAUGUCAACAAAGUCGAGGAUAUGGGCAAAUAAAAUAAGAACCAGAAGGCGAAUAAU [salish99_ss1_r3_070] (puzzle: Same State 1) | – | – | – | 0.0405 | 0.283 | 0.368 |
| AGCUAUCGCGUACGAUAGCUGAAGCAUGUACAUGAGGAUCACCCAUGUCAUGUACAGGCUUUUUGCUCGUCUUAUUG [JL-shm-2.27 JL mod] (puzzle: Sensor for hsa-mir-208a) | – | – | – | 0.77 | 0.0164 | 0.625 |
| GCCGCGUUUCGCGCCUACAUGAGGAUCACCCAUGUUUGUAGGCAGGAUAUCGUUUGCUUUGCAACCGAGAAGGGCUGUUGUGGC [salish99_SSNG3_R04_013] (Eterna round: R96, puzzle: Same State NG 3) | 0.0516 | 0.0384 | 0.0555 | – | – | – |
| UUGAAGAAUUAAGGAUAUUGAAUACAUAUGUUUAACAUGAGGAUCACCCAUGUGGGUUGCGGUAUCGAGAAGGUAAAUUAAAAG [Mat - Same State NG 2 - JL mod - D2] (Eterna round: R96, puzzle: Same State NG 2) | 0.142 | 0.179 | 0.131 | – | – | – |
| UAACAGUACAAUUUAGAUCUACAUGAGGAUCACCCAUGUACUGAGGAUAUCAGCUCGAAUAGAGCUGAGAAGGCAGAAGAACUA [SSNG3/11-A1] (Eterna round: R96, puzzle: Same State NG 3) | 0.0358 | 0.127 | 0.203 | – | – | – |
| AUAUGAGGAGCAGGAUAUGCGAAGAAGAAAGAAGUAGAAGGGCUCAUGGGACGACAUGAGGAUCACCCAUGUACUACCCGAUGA [AK SSNG1-V2-8] (Eterna round: R96, puzzle: Same State NG 1) | 0.0498 | 0.0667 | 0.0559 | – | – | – |
| AAUUAACAUGAGGAUCACCCAUGUCGUAUUAUGGGAGGAUAUACGUGGACCGUAGUCCGCGUAGAAGGCCUAAUUA [Mat - Same State 1 - Mod of JL - D21] (Eterna round: R96, puzzle: Same State 1) | 0.021 | 0.0345 | 0.0382 | – | – | – |
| AUACUCAUGUAAGGAUAUGCAGCCGUUUCGGCUGCAGAAGGUACUAUAAUACAUGAGGAUCACCCAUGUCUCUAUUAUUUAGUU [JL SSNG1 1.46] (Eterna round: R96, puzzle: Same State NG 1) | 0.0721 | 0.0466 | 0.0551 | – | – | – |
| GUAGCAUACCGAGGAUAUUCAUAUUAUAAACAUGAGGAUCACCCAUGUGGUCGAUUACGACCUUGGGAGAAGGCGGAAUGCUAC [Xeonanis - 20 Mod36] (Eterna round: R96, puzzle: Same State NG 2) | 0.0464 | 0.462 | 0.725 | – | – | – |
| GAGGGAUGAGCGUAGGAUAUAGGAGAAGUGACAUGAGGAUCACCCAUGUAGGAGGAGGGAUGAGACUAGAAGGACGAGGUAGGAG [JR_SS2_Sub061] (puzzle: Same State 2) | – | – | – | 0.0375 | 0.0547 | 0.0679 |

| Sequence | apparent KD of MS2 coat protein (input ligand: FMN 200 uM) [µM] | apparent KD of MS2 coat protein [1] [µM] | apparent KD of MS2 coat protein (input ligand: none) [µM] | apparent KD of MS2 coat protein [2] [µM] | apparent KD of MS2 coat protein [3] [µM] | apparent KD of MS2 coat protein [4] [µM] |
| --- | --- | --- | --- | --- | --- | --- |
| UGUUGUAUUACAGGAUAUCUAUGAUUUUUUUUUAGAGAAGGGUAUUCACAUGAGGAUCACCCAUGUAUAUACGAGGAAGUUGUG [JMF's solution 65] (Eterna round: R96, puzzle: Same State NG 1) | – | 0.0398 | – | – | – | – |
| ACAAGCUUUUUUGUAGUGAAAGGUGGGAUACAUGAGGAUCACCCAUGUAUUGUUGUUAAUAUUUGUCCUCGUCUUAU [JR_SHM208A_Sub085] (puzzle: Sensor for hsa-mir-208a) | – | – | – | 0.0318 | 0.0139 | 0.0363 |
| GCUCGAAUCAGAACCAACAUGAGGAUCACCCAUGUAUGUUGGUAGGAUAUCGUUUCUAAGAGAAACGAGAAGGGCCGAACGAGC [SameState NG3 #5] (Eterna round: R96, puzzle: Same State NG 3) | 0.224 | 0.132 | 0.212 | – | – | – |
| GUGGUCAGACAUGAGGAUCACCCAUGUGGAAUAAAUAAGGAGAAGGAUAUCGAAUAUAGGAUAUACGAGAAGGUCUGGUUGGUG (Eterna round: R96, puzzle: Same State NG 3) | – | 0.0752 | – | – | – | – |
| AAUAAAGUCAGUAAGGAUAUCCAAAUGGCGACAUGAGGAUCACCCAUGUAAGAAACCCGACAUCGGGAGAAGGUACAUGACGAUG [Enlaorle] (puzzle: Same State 2) | – | – | – | 0.0879 | 0.124 | 0.127 |
| AUUAUACAUGAGGAUCACCCAUGUCAACGUAGUCGAGGAUAUGGGCAGCCGUGAGGCGUACUAGAAGGCGAAGAGA [Mat - Same State 1 - Mod of JL - D8] (puzzle: Same State 1) | – | – | – | 0.0843 | 0.235 | 0.385 |
| UCUGCAAGAACAGGAUAUGGGUUCAGAGCGCGAGUGCGCUUUGACACAUGAGGAUCACCCAUGUCCCAGAAGGGUUCAAGCGGC [Cexezadi] (Eterna round: R96, puzzle: Same State NG 2) | 0.03 | 0.321 | 0.385 | – | – | – |
| AAAAGAACCACAGGAUAUACACUCCUAGCGGCGGUAGAAGGGUGGAACAUGAGGAUCACCCAUGUACGUCUGGAAUCAGACUAA [Radianis] (Eterna round: R96, puzzle: Same State NG 1) | 0.267 | 0.233 | 0.857 | – | – | – |
| AAUUUAAUACAUGAGGAUCACCCAUGUAAAUUAAUUAAGAUCUAGGAUAUCAGCUCGAUUAGAGCUGAGAAGGAGAUCACAUGU [SSNG3/19-B2] (Eterna round: R96, puzzle: Same State NG 3) | – | 0.012 | – | – | – | – |
| UCAAUCAUGUAAGGAUAUGCAGCCGAAACGGCUGCAGAAGGUACUAUAAUUACAUGAGGAUCACCCAUGUUAUAAAAUUUAUAU [Mat - Same State NG 1 - JL mod - D67] (Eterna round: R96, puzzle: Same State NG 1) | – | 0.085 | – | – | – | – |
| AAUUAAGAUCGAGGAUAUCACGUCGAAUAGACGUGAGAAGGCGAUCAUAACAUGAGGAUCACCCAUGUAUUACAUGAAUUAAUU [SSNG1/4-B1] (Eterna round: R96, puzzle: Same State NG 1) | 0.0236 | 0.0229 | 0.027 | – | – | – |
| GAGCCAGUCCGAGGAUAUUCAUAUUAAACAUGAGGAUCACCCAUGUAGGCUCAGAAAGAGCCUUGGGAGAAGGCGGACUGGCUC [Xeonanisa<<1] (Eterna round: R96, puzzle: Same State NG 2) | 0.0167 | 0.182 | 0.201 | – | – | – |
| GGUCCAGCCUGAGCUGGACGAUAGUAUGUACAUGAGGAUCACCCAUGUCAUGUAUAAGUAUUUUGUUUGUCUUGAAA [Sensorship 3 - Jieux - Sensor for hsa-mir-208a] (puzzle: Sensor for hsa-mir-208a) | – | – | – | 0.0221 | 0.0147 | 0.0193 |
| UUAUAACAUGAGGAUCACCCAUGUCAUCUAAGUCGAGGAUAUGGGAAUUAAUUAAUUAAACCAGAAGGCGAAAAUU [Mat - Same State 1 - D91] (puzzle: Same State 1) | – | – | – | 0.16 | 0.149 | 0.783 |
| GCUAGGAUUAAAGCCAACAUGAGGAUCACCCAUGUAUGUUGGUAGGAUAUCGUUUGCAAAGCAAACGAGAAGGGCUAACCUAGC [Mat - Same State NG 3 - JL Mod - D67] (Eterna round: R96, puzzle: Same State NG 3) | 0.0883 | 0.073 | 0.0926 | – | – | – |
